# Assay results from paper PMC4863741 (Genes & Development, 2016).
# T1: GST-His-Sfmbt-SAM_(1137-1220) (Drosophila, UniProt Q9VK33 1137-1220)
# T1 sequence (looked up): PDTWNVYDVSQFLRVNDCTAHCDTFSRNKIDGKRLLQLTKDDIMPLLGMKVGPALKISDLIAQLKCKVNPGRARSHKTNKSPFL
# T2: Sfmbt-SAM_(1137-1220) (Drosophila, UniProt Q9VK33 1137-1220)
# T2 sequence (looked up): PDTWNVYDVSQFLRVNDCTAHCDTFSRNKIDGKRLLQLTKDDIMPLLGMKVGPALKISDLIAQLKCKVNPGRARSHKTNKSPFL
# How the values were obtained:
# [1] = target: T1, GST-His-Sfmbt-SAM_(1137-1220); assay: pull-down
# Sfmbt-SAM_(1137-1220) = target: T2, Sfmbt-SAM_(1137-1220); assay: SEC
Binder,binding result [1],binding result (Sfmbt-SAM_(1137-1220))
"His-Scm-SAM_(803-877)^L855E/L859E (domain or fragment, Drosophila, UniProt Q9VHA0 803-877, looked up) PIDWTIEEVIQYIESNDNSLAVHGDLFRKHEIDGKALLLLNSEMMMKYMGLKEGPAEKICNLVNKVNGRRNNLAL",binds,–
"Scm-SAM_(803-877)^L855E/L859E (coexpressed with Sfmbt-SAM) (domain or fragment, Drosophila, UniProt Q9VHA0 803-877, looked up) PIDWTIEEVIQYIESNDNSLAVHGDLFRKHEIDGKALLLLNSEMMMKYMGLKEGPAEKICNLVNKVNGRRNNLAL",–,binds
